Data on two molecules can be found in US20230051580A1 (HUDSON INSTITUTE OF MEDICAL RESEARCH, published 2023).

Experiment in all cases: SPR (ProteOn XPR36), antibody immobilised, antigen applied
Assay [1] has as its target T1, recombinant full-length (mature) human CXCL10 (human, UniProt P02778 22-98).
T1 construct: Recombinant protein from Genscript, used for immunisation and as the assay standard; also called full-length CXCL10; IP-10
T1 sequence: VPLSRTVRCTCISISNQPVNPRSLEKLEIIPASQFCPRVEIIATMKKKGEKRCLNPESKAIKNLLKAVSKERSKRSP
How it is done: (§1) Two monoclonal antibodies; namely mAb-RA2 specific for full length, N-terminally intact CXCL10, and mAb-RG2 specific for both full length and truncated CXCL10, were analysed by Surface Plasmon Resonance (SPR) for binding affinity against both forms of CXCL10. Experiments were performed using a ProteOn XPR36 SPRi biosensor (BioRad), equipped with a GLC chip. The chip was conditioned with 0.5% SDS, 50 mM NaOH and 100 mM HCl, and then the lanes were activated using equal parts 1-Ethyl-3-(3-dimethylaminopropyl) carbodiimide (EDAC) and N-Hydroxysuccinimide (NETS). The antibodies were immobilised in separate lanes at a concentration of 50 μg/mL in sodium acetate buffer (pH4.5), then each lane deactivated using ethanolamine. Antigens were applied to each lane, and binding was recorded as RU. All channels were regenerated using 0.85% […] between applications of antigen. Interspot and control RU were subtracted to give specific binding.
(§2) The inventors developed a monoclonal antibody that could differentiate between the N-terminally intact, chemotactically active form of CXCL10 and all other variants. Using full-length CXCL10 protein as the antigen, hybridoma clones were isolated and screened for reactivity against (i) full-length CXCL10 protein; and (ii) short synthetic peptides, representing either the intact or truncated N-terminus of CXCL10. Antibodies secreted by clone mAb-RA2 recognized both full-length and N-terminally intact CXCL10, but not the N-terminally truncated form (Table 4). Antibodies secreted by clone mAb-RG2 reacted with all proteoforms of CXCL10 tested. […] The open reading frames encoding the variable regions of both antibodies was sequenced.

Assay [2] addresses T2, short peptide comprising the intact N-terminus of human CXCL10 (NH2-VPLSRTVRCTCISISNQPVNPRSLE-COOH) (human).
T2 construct: Synthesised by Mimotopes; also called N-terminally intact CXCL10 peptide
T2 peptide: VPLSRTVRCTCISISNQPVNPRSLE
How it is done:
as §1, §2

Assay [3] addresses T3, short peptide comprising the truncated N-terminus of human CXCL10 (NH2-LSRTVRCTCISISNQPVNPRSLE-COOH) (human).
T3 construct: Synthesised by Mimotopes; also called VP-truncated N-term; N-terminally truncated form
T3 peptide: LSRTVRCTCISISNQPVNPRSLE
How it is done:
as §1, §2

B1: anti-CXCL10 monoclonal antibody mAb-RG2 (antibody, V domains shown)
VH: QIQLVQSGPDLKKPGETVKISCKASGYTFTNYGMNWVKQAPGKGLKWMAWINTNSGEPTYAEEFKGRFALSLDTSASTAYLQINNLKNEDTATYFCARYTGEFFYNGSSYVSYWYFDVWGAGATVTVSS
VL: DIVLTQSPASLAVSLGQRATISCRASKSVSSSGYSYMHWYQQKPGQPPKLLIYLASNLESGVPARFSGSGSGSDFTLNIHPVEEEDAATYYCQHSRDLPWTFGGGTKLEIKR
notes: It was immobilised on the chip in SPR, and used biotinylated as the detection antibody in the sandwich ELISA (ART); also called anti-CXCL10 antibody RG2
B1: the Kd – broadly, the free concentration of one partner at which half of the binding sites on the other are occupied at equilibrium, for simple one-to-one binding – in assay [1] was 0.00389 nM; in assay [2], 3.54 nM; in assay [3], 3 nM.

B2: anti-CXCL10 monoclonal antibody mAb-RA2 (antibody, V domains shown)
VH: QVQLQQPGAELVRPGASVKLSCKASGYTFTSHWMIWVKQRPGQGLEWIGMIDPSDSATHYNQMFKDKATLTVDKSSSTAYMQLSSLTSEDSAVYYCANTRHDESWGQGTLVTVSA
VL: DIQMTQSPSSLSASLGGRVTITCKASQDIHKYIAWYQHKPGKGPRLLIYDTSTLQPGIPSRFTGSGSGRDYSFSISNLEPEDIATYYCLQYDDLYTFGGGTKLEIKR
notes: It was immobilised on the chip in SPR, and used biotinylated as the detection antibody in the sandwich ELISA (ART); also called anti-CXCL10 antibody RA2
B2: the Kd in assay [1] amounted to 0.49 nM; in assay [2] it was 0.736 nM. The binding result in assay [3] is “no binding”.
